Source: patent US20260242735A1 (UNIVERSIT T BASEL, published 2026)

B1: Refmab #4 (antibody, V domains shown)
VH: QVQLVQSGAEVKKPGESVKVSCKASGYTFTNYGMNWVKQAPGQGLEWMGWINTYTGEPTYADKFQGRVTMTTDTSTSTAYMEIRNLGGDDTAVYYCARWSWSDGYYVYFDYWGQGTSVTVSS
VL: DIVMTQSPDSLTVSLGERTTINCKSSQSVLDSSTNKNSLAWYQQKPGQPPKLLLSWASTRESGIPDRFSGSGSGTDFTLTIDSPQPEDSATYYCQQSAHFPITFGQGTRLEIK
notes: The alanine scan used IgG or Fab
B2: Refmab #3 (antibody, V domains shown)
VH: QVQLVQSGAEVKKPGSSVKVSCKASGYTFTDYNMHWVRQAPGQGLEWIGYIYPYNGGTGYNQKFKSKATITADESTNTAYMELSSLRSEDTAVYYCARGRPAMDYWGQGTLVTVSS
VL: DIQMTQSPSSLSASVGDRVTITCRASESVDNYGISFMNWFQQKPGKAPKLLIYAASNQGSGVPSRFSGSGSGTDFTLTISSLQPDDFATYYCQQSKEVPWTFGQGTKVEIK
notes: as for B1

Experiments:
Test in all cases: flow cytometry on HEK293-T, alanine scan
human CD33 E154A = human CD33 E154A (human, UniProt P20138 18-364)
Chain of human CD33 E154A (P20138 18-364 E154A limits assumed): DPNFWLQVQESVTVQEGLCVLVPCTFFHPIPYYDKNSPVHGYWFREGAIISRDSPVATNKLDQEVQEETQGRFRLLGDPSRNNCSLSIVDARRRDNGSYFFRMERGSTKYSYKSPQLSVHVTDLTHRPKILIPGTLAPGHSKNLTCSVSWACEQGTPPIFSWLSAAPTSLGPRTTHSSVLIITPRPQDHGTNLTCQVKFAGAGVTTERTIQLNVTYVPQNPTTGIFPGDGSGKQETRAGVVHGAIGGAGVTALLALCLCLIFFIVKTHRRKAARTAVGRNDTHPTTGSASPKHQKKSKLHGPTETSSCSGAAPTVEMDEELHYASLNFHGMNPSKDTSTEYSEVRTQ

human CD33 N113A = human CD33 N113A (human, UniProt P20138 18-364)
Chain of human CD33 N113A (P20138 18-364 N113A limits assumed): as the sequence (P20138 18-364 E154A limits assumed) above, with N96A, A137E counted along it

human CD33 D140A = human CD33 D140A (human, UniProt P20138 18-364)
Chain of human CD33 D140A (P20138 18-364 D140A limits assumed): as the sequence (P20138 18-364 E154A limits assumed) above, with D123A, A137E counted along it

human CD33 N99A = human CD33 N99A (human, UniProt P20138 18-364)
Chain of human CD33 N99A (P20138 18-364 N99A limits assumed): as the sequence (P20138 18-364 E154A limits assumed) above, with N82A, A137E counted along it

human CD33 S164A = human CD33 S164A (human, UniProt P20138 18-364)
Chain of human CD33 S164A (P20138 18-364 S164A limits assumed): as the sequence (P20138 18-364 E154A limits assumed) above, with A137E, S147A counted along it

human CD33 N100A = human CD33 N100A (human, UniProt P20138 18-364)
Chain of human CD33 N100A (P20138 18-364 N100A limits assumed): as the sequence (P20138 18-364 E154A limits assumed) above, with N83A, A137E counted along it

human CD33 K159A = human CD33 K159A (human, UniProt P20138 18-364)
Chain of human CD33 K159A (P20138 18-364 K159A limits assumed): as the sequence (P20138 18-364 E154A limits assumed) above, with A137E, K142A counted along it

human CD33 H143A = human CD33 H143A (human, UniProt P20138 18-364)
Chain of human CD33 H143A (P20138 18-364 H143A limits assumed): as the sequence (P20138 18-364 E154A limits assumed) above, with H126A, A137E counted along it

human CD33 F118A = human CD33 F118A (human, UniProt P20138 18-364)
Chain of human CD33 F118A (P20138 18-364 F118A limits assumed): as the sequence (P20138 18-364 E154A limits assumed) above, with F101A, A137E counted along it

human CD33 G94A = human CD33 G94A (human, UniProt P20138 18-364)
Chain of human CD33 G94A (P20138 18-364 G94A limits assumed): as the sequence (P20138 18-364 E154A limits assumed) above, with G77A, A137E counted along it

human CD33 R98A = human CD33 R98A (human, UniProt P20138 18-364)
Chain of human CD33 R98A (P20138 18-364 R98A limits assumed): as the sequence (P20138 18-364 E154A limits assumed) above, with R81A, A137E counted along it

human CD33 S131A = human CD33 S131A (human, UniProt P20138 18-364)
Chain of human CD33 S131A (P20138 18-364 S131A limits assumed): as the sequence (P20138 18-364 E154A limits assumed) above, with S114A, A137E counted along it

human CD33 I149A = human CD33 I149A (human, UniProt P20138 18-364)
Chain of human CD33 I149A (P20138 18-364 I149A limits assumed): as the sequence (P20138 18-364 E154A limits assumed) above, with I132A, A137E counted along it

human CD33 H137A = human CD33 H137A (human, UniProt P20138 18-364)
Chain of human CD33 H137A (P20138 18-364 H137A limits assumed): as the sequence (P20138 18-364 E154A limits assumed) above, with H120A, A137E counted along it

human CD33 Y116A = human CD33 Y116A (human, UniProt P20138 18-364)
Chain of human CD33 Y116A (P20138 18-364 Y116A limits assumed): as the sequence (P20138 18-364 E154A limits assumed) above, with Y99A, A137E counted along it

human CD33 T139A = human CD33 T139A (human, UniProt P20138 18-364)
Chain of human CD33 T139A (P20138 18-364 T139A limits assumed): as the sequence (P20138 18-364 E154A limits assumed) above, with T122A, A137E counted along it

human CD33 V136A = human CD33 V136A (human, UniProt P20138 18-364)
Chain of human CD33 V136A (P20138 18-364 V136A limits assumed): as the sequence (P20138 18-364 E154A limits assumed) above, with V119A, A137E counted along it

human CD33 L148A = human CD33 L148A (human, UniProt P20138 18-364)
Chain of human CD33 L148A (P20138 18-364 L148A limits assumed): as the sequence (P20138 18-364 E154A limits assumed) above, with L131A, A137E counted along it

human CD33 Y127A = human CD33 Y127A (human, UniProt P20138 18-364)
Chain of human CD33 Y127A (P20138 18-364 Y127A limits assumed): as the sequence (P20138 18-364 E154A limits assumed) above, with Y110A, A137E counted along it

human CD33 L161A = human CD33 L161A (human, UniProt P20138 18-364)
Chain of human CD33 L161A (P20138 18-364 L161A limits assumed): as the sequence (P20138 18-364 E154A limits assumed) above, with A137E, L144A counted along it

human CD33 G151A = human CD33 G151A (human, UniProt P20138 18-364)
Chain of human CD33 G151A (P20138 18-364 G151A limits assumed): as the sequence (P20138 18-364 E154A limits assumed) above, with G134A, A137E counted along it

human CD33 L141A = human CD33 L141A (human, UniProt P20138 18-364)
Chain of human CD33 L141A (P20138 18-364 L141A limits assumed): as the sequence (P20138 18-364 E154A limits assumed) above, with L124A, A137E counted along it

human CD33 S102A = human CD33 S102A (human, UniProt P20138 18-364)
Chain of human CD33 S102A (P20138 18-364 S102A limits assumed): as the sequence (P20138 18-364 E154A limits assumed) above, with S85A, A137E counted along it

human CD33 C163A = human CD33 C163A (human, UniProt P20138 18-364)
Chain of human CD33 C163A (P20138 18-364 C163A limits assumed): as the sequence (P20138 18-364 E154A limits assumed) above, with A137E, C146A counted along it

human CD33 I105A = human CD33 I105A (human, UniProt P20138 18-364)
Chain of human CD33 I105A (P20138 18-364 I105A limits assumed): as the sequence (P20138 18-364 E154A limits assumed) above, with I88A, A137E counted along it

human CD33 R144A = human CD33 R144A (human, UniProt P20138 18-364)
Chain of human CD33 R144A (P20138 18-364 R144A limits assumed): as the sequence (P20138 18-364 E154A limits assumed) above, with R127A, A137E counted along it

human CD33 E121A = human CD33 E121A (human, UniProt P20138 18-364)
Chain of human CD33 E121A (P20138 18-364 E121A limits assumed): as the sequence (P20138 18-364 E154A limits assumed) above, with E104A, A137E counted along it

human CD33 G114A = human CD33 G114A (human, UniProt P20138 18-364)
Chain of human CD33 G114A (P20138 18-364 G114A limits assumed): as the sequence (P20138 18-364 E154A limits assumed) above, with G97A, A137E counted along it

human CD33 S128A = human CD33 S128A (human, UniProt P20138 18-364)
Chain of human CD33 S128A (P20138 18-364 S128A limits assumed): as the sequence (P20138 18-364 E154A limits assumed) above, with S111A, A137E counted along it

human CD33 S158A = human CD33 S158A (human, UniProt P20138 18-364)
Chain of human CD33 S158A (P20138 18-364 S158A limits assumed): as the sequence (P20138 18-364 E154A limits assumed) above, with A137E, S141A counted along it

human CD33 K146A = human CD33 K146A (human, UniProt P20138 18-364)
Chain of human CD33 K146A (P20138 18-364 K146A limits assumed): as the sequence (P20138 18-364 E154A limits assumed) above, with K129A, A137E counted along it

human CD33 A108S = human CD33 A108S (human, UniProt P20138 18-364)
Chain of human CD33 A108S (P20138 18-364 A108S limits assumed): as the sequence (P20138 18-364 E154A limits assumed) above, with A91S, A137E counted along it

Row | Binder | Mean % WT Binding (human CD33 E154A) | Mean % WT Binding (human CD33 N113A) | Mean % WT Binding (human CD33 D140A) | Mean % WT Binding (human CD33 N99A) | Mean % WT Binding (human CD33 S164A) | Mean % WT Binding (human CD33 N100A) | Mean % WT Binding (human CD33 K159A) | Mean % WT Binding (human CD33 H143A) | Mean % WT Binding (human CD33 F118A) | Mean % WT Binding (human CD33 G94A) | Mean % WT Binding (human CD33 R98A) | Mean % WT Binding (human CD33 S131A) | Mean % WT Binding (human CD33 I149A) | Mean % WT Binding (human CD33 H137A) | Mean % WT Binding (human CD33 Y116A) | Mean % WT Binding (human CD33 T139A) | Mean % WT Binding (human CD33 V136A) | Mean % WT Binding (human CD33 L148A) | Mean % WT Binding (human CD33 Y127A) | Mean % WT Binding (human CD33 L161A) | also measured
1 | B1 | 84.4 % WT binding | 45.1 % WT binding | 96.1 % WT binding | 43.5 % WT binding | 112 % WT binding | 123 % WT binding | 118 % WT binding | 106 % WT binding | 6 % WT binding | 59 % WT binding | 128 % WT binding | 134 % WT binding | 99.9 % WT binding | 108 % WT binding | 5.4 % WT binding | 84.3 % WT binding | 47.7 % WT binding | 113 % WT binding | 300 % WT binding | 114 % WT binding | Mean % WT Binding (human CD33 G151A): 101 % WT binding; Mean % WT Binding (human CD33 L141A): 93.7 % WT binding; Mean % WT Binding (human CD33 S102A): 73.6 % WT binding; Mean % WT Binding (human CD33 C163A): 43.3 % WT binding; Mean % WT Binding (human CD33 I105A): 21.6 % WT binding; Mean % WT Binding (human CD33 R144A): 99.7 % WT binding; Mean % WT Binding (human CD33 E121A): 77.3 % WT binding; Mean % WT Binding (human CD33 G114A): 110 % WT binding; Mean % WT Binding (human CD33 S128A): 184 % WT binding; Mean % WT Binding (human CD33 S158A): 98 % WT binding; Mean % WT Binding (human CD33 K146A): 122 % WT binding; Mean % WT Binding (human CD33 A108S): 86.5 % WT binding
2 | B2 | 126 % WT binding | 81.4 % WT binding | 119 % WT binding | 98.6 % WT binding | 96.3 % WT binding | 107 % WT binding | 110 % WT binding | 97.9 % WT binding | 8.2 % WT binding | 115 % WT binding | 102 % WT binding | 117 % WT binding | 101 % WT binding | 100 % WT binding | 5.3 % WT binding | 143 % WT binding | 106 % WT binding | 108 % WT binding | 31.9 % WT binding | 116 % WT binding | Mean % WT Binding (human CD33 G151A): 108 % WT binding; Mean % WT Binding (human CD33 L141A): 153 % WT binding; Mean % WT Binding (human CD33 S102A): 75.9 % WT binding; Mean % WT Binding (human CD33 C163A): 65.7 % WT binding; Mean % WT Binding (human CD33 I105A): 64.7 % WT binding; Mean % WT Binding (human CD33 R144A): 112 % WT binding; Mean % WT Binding (human CD33 E121A): 132 % WT binding; Mean % WT Binding (human CD33 G114A): 92.6 % WT binding; Mean % WT Binding (human CD33 S128A): 446 % WT binding; Mean % WT Binding (human CD33 S158A): 111 % WT binding; Mean % WT Binding (human CD33 K146A): 118 % WT binding; Mean % WT Binding (human CD33 A108S): 98 % WT binding
